Reference: patent US20260209350A1 (Alector, published 2026)
Like-named read-outs stand apart in the source and are kept apart here.

T1: human monomeric His tagged TREM2 protein (human, UniProt Q9NZC2 19-174)
T1 construct: also called hTREM2-HIS
T1 sequence: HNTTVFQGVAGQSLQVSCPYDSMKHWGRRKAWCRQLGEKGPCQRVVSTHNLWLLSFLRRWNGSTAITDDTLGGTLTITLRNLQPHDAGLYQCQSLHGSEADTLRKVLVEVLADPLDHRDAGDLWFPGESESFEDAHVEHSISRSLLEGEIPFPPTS

T2: mouse TREM2 Fc fusion protein (mouse, UniProt Q99NH8 19-171)
T2 construct: also called mTREM2-Fc; not shown: Fc part not specified
T2 sequence (looked up): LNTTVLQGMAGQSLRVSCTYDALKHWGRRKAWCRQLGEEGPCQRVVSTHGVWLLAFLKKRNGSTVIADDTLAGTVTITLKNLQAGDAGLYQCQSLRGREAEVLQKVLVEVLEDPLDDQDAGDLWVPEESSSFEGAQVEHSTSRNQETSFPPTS

T3: human TREM2 Fc fusion protein (human, UniProt Q9NZC2 19-174)
T3 construct: also called hTREM2-Fc; not shown: Fc part not specified
T3 sequence: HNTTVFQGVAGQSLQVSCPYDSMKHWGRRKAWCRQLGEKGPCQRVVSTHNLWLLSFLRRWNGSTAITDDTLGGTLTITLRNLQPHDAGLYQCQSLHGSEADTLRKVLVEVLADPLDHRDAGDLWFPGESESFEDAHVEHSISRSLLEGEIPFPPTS

T4: mouse TREM2 on cells (mouse, UniProt Q99NH8 19-227)
T4 construct: whole, on cells; Used for the recombinant protein on BWZ/BW cells (with mouse DAP12) and for the native protein on mouse macrophages and dendritic cells; the cell type stands under assay; also called mTREM2; mTrem2
T4 sequence (looked up): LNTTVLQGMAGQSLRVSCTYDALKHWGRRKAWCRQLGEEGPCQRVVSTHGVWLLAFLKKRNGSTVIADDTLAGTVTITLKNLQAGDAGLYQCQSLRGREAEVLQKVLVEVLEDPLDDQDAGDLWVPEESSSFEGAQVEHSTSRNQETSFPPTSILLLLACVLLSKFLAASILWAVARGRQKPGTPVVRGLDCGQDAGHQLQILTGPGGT

T5: human TREM2 on primary human cells (human, UniProt Q9NZC2 19-230)
T5 construct: also called hTREM2; TREM2 on primary human dendritic cells (hDC) and human macrophages
T5 sequence: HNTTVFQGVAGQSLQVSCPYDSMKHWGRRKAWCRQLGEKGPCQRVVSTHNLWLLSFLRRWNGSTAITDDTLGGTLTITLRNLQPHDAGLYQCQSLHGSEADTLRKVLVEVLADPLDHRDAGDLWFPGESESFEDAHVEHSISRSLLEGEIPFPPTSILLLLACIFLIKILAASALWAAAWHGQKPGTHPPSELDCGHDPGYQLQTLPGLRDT


Legend:
[1] = molecular target: T1, human monomeric His tagged TREM2 protein; assay: ForteBio or MSD-SET, monovalent
Description: (§1) The binding affinity of each anti-TREM2 antibody was determined by measuring their KD by ForteBio or MSD-SET. […] Briefly, ForteBio affinity measurements were performed by loading IgGs on-line onto AHQ sensors. Sensors were equilibrated off-line in assay buffer for 30 min and then monitored on-line for 60 seconds for baseline establishment. Sensors with loaded IgGs were exposed to 100 nM antigen for 5 minutes, then transferred to assay buffer for 5 min for off-rate measurement. Kinetics were analyzed using the 1:1 binding model.
(§2) Solution equilibrium titrations (SET) were performed in PBS+0.1% IgG-Free BSA (PBSF) with antigen held constant at 50 pM and incubated with 3- to 5-fold serial dilutions of antibody starting at 10 nM. Antibodies (20 nM in PBS) were coated onto standard bind MSD-ECL plates overnight at 4° C. or at room temperature for 30 min. Plates were then blocked for 30 min with shaking at 700 rpm, followed by three washes with wash buffer (PBSF+0.05% Tween 20). SET samples were applied and incubated on the plates for 150s with shaking at 700 rpm followed by one wash. Antigen captured on a plate was detected with 250 ng/mL sulfotag-labeled streptavidin in PBSF by incubation on the plate for 3 min. The plates were washed three times with wash buffer and then read on the MSD Sector Imager 2400 instrument using 1×Read Buffer T with surfactant. The percent free antigen was plotted as a function of titrated antibody in Prism and fit to a quadratic equation to extract the KD. To improve throughput, liquid handling robots were used throughout MSD-SET experiments, including SET sample preparation.

[2] = molecular target: T2, mouse TREM2 Fc fusion protein; assay: ForteBio or MSD-SET, avid
Description: as §1, §2

[3] = molecular target: T3, human TREM2 Fc fusion protein; assay: ForteBio or MSD-SET, avid
Description: as §1, §2

[4] = molecular target: T4, mouse TREM2 on cells; assay: FACS, WT mouse macrophages
Description: (§3) Cells were harvested, plated at 10⁵/ml in a 96 well plate, washed, and incubated in 100 ul PBS containing 10-50 ug/ml Mab and Fc blocking reagent for 1 hour in ice. Cells were then washed twice and incubated in 100 ul PBS containing 5 ug/ml PE-conjugated secondary antibody for 30 minutes in ice. Cells were washed twice in cold PBS and acquired on a BD FACS Canto. Data analysis and calculation of MFI values was performed with FlowJo (TreeStar) software version 10.0.7.

[5] = molecular target: T5, human TREM2 on primary human cells; assay: FACS, primary human dendritic cells
[6] = molecular target: T4, mouse TREM2 on cells; assay: FACS, WT mouse dendritic cells
Description: as §3

[7] = molecular target: T5, human TREM2 on primary human cells; assay: cell-based or functional assay
[8] = molecular target: T4, mouse TREM2 on cells; assay: FACS, BWZ T2 cells
[9] = molecular target: T4, mouse TREM2 on cells; assay: FACS, mTrem2 cells
[10] = molecular target: T1, human monomeric His tagged TREM2 protein; assay: ForteBio or MSD-SET, monovalent; remark: listed apart in the source
[11] = molecular target: T2, mouse TREM2 Fc fusion protein; assay: ForteBio or MSD-SET, avid; remark: listed apart in the source
[12] = molecular target: T3, human TREM2 Fc fusion protein; assay: ForteBio or MSD-SET, avid; remark: listed apart in the source

Binder | Kd [1] [nM] | Kd [2] [nM] | Kd [3] [nM] | MFI [4] [MFI] | hDC % positive [5] [%] | MFI [6] [MFI] | Induction of CD86 & CD83 Human hDC plate (% CD83+CD86+ cells) [7] [%] | Induction of CD86 & CD83 hDC solution (% CD83+CD86+ cells) [7] [%] | MFI [8] [MFI] | MFI [9] [MFI] | Kd [10] [nM] | Kd [11] [nM] | Kd [12] [nM] | binding result [11]
Ab9 (antibody, human IgG1, V domains shown, human IgG1) VH: EVQLVQSGAEVKKPGESLKISCKGSGYSFTSYWIGWVRQMPGKGLEWMGIIYPGDSDTTYSPSFQGQVTISADKSISTAYLQWSSLKASDTAMYYCARLHISGEVNWFDPWGQGTLVTVSS VL: EIVLTQSPATLSLSPGERATLSCRASQSVSSYLAWYQQKPGQAPRLLIYDASNRATGIPARFSGSGSGTDFTLTISSLEPEDFAVYYCQQFSYWPWTFGGGTKVEIK | 6.32 |  | 0.348 | 171 | 65.8 | 538 | 79.3 | 5.6 | 15700 |  |  |  |  | 
Ab7 (antibody, human IgG1, V domains shown, human IgG1) VH: QVQLVQSGAEVKKPGASVKVSCKASGYTFTSYYMHWVRQAPGQGLEWMGIINPSGGSTTYAQKFQGRVTMTRDTSTSTVYMELSSLRSEDTAVYYCARTSSKERDYWGQGTLVTVSS VL: EIVLTQSPATLSLSPGERATLSCRASQSVSSYLAWYQQKPGQAPRLLIYDASKRATGIPARFSGSGSGTDFTLTISSLEPEDFAVYYCQQRISYPITFGGGTKVEIK |  |  |  |  |  |  |  |  |  | 10900 | 33.4 | 1.11 | 1.05 | 
Ab66 (antibody, human IgG1, V domains shown, human IgG1) VH: not shown VL: EIVLTQSPGTLSLSPGERATLSCRASQSVSSYLAWYQQKPGQAPRLLIYDASNRATGIPARFSGSGSGTDFTLTISSLEPEDFAVYYCQQRSAYPITFGGGTKVEIK |  |  |  |  |  |  |  |  |  | 4100 | 60.7 | 3.88 | 1.98 | 
Ab8 (antibody, human IgG1, V domains shown, human IgG1) VH: QLQLQESGPGLVKPSETLSLTCTVSGGSISSSSYYWGWIRQPPGKGLEWIGSISYSGSTYYNPSLKSRVTISVDTSKNQFSLKLSSVTAADTAVYYCARGPYRLLLGMDVWGQGTTVTVSS VL: DIQMTQSPSSLSASVGDRVTITCRASQSISSYLNWYQQKPGKAPKLLIYGASSLQSGVPSRFSGSGSGTDFTLTISSLQPEDFATYYCQQIDDTPITFGGGTKVEIK |  |  |  |  |  |  |  |  |  | 523 | 15 |  | 0.723 | no binding
Ab63 (antibody, human IgG1, V domains shown, human IgG1) VH: QVQLVQSGAEVKKPGASVKVSCKASGYTFTSYGISWVRQAPGQGLEWMGWISTYNGNTNYAQKLQGRVTMTTDTSTSTAYMELRSLRSDDTAVYYCARGSGSGYDSWYDWGQGTLVTVSS VL: DIQMTQSPSSVSASVGDRVTITCRASQGIDSWLAWYQQKPGKAPKLLIYAASSLQSGVPSRFSGSGSGTDFTLTISSLQPEDFATYYCQQAYSLPPTFGGGTKVEIK |  |  |  |  |  |  |  |  |  | 1720 | 49.6 |  | 1.13 | no binding
Ab1 (antibody, human IgG1, V domains shown, human IgG1) VH: not shown VL: EIVMTQSPATLSVSPGERATLSCRASQSVSSNLAWYQQKPGQAPRLLIYGASTRATGIPARFSGSGSGTEFTLTISSLQSEDFAVYYCQQLPYWPPTFGGGTKVEIK | 6.67 | 4.86 | 0.705 | 82.3 | 64.9 | 393 | 87.2 | 3 | 12600 |  |  |  |  | 
Ab2 (antibody, human IgG1, V domains shown, human IgG1) VH: not shown VL: EIVLTQSPATLSVSPGERATLSCRASQSVGSNLAWYQQKPGQAPRLLIYGASTRATGIPARFSGSGSGTEFTLTISSLQSEDFAVYYCQQYFFYPPTFGGGTKVEIK |  |  |  |  |  |  |  |  |  | 1430 | 24.1 |  | 0.592 | no binding

Second part, the binder after the results:

Kd [1] [nM] | Kd [2] [nM] | Kd [3] [nM] | MFI [4] [MFI] | hDC % positive [5] [%] | MFI [6] [MFI] | Induction of CD86 & CD83 Human hDC plate (% CD83+CD86+ cells) [7] [%] | Induction of CD86 & CD83 hDC solution (% CD83+CD86+ cells) [7] [%] | MFI [8] [MFI] | MFI [9] [MFI] | Kd [10] [nM] | Kd [11] [nM] | Kd [12] [nM] | binding result [11] | Binder
3.19 | 0.62 | 0.551 | 145 | 75.8 | 529 | 78.7 | 1.9 | 11600 |  |  |  |  |  | Ab14 (antibody, human IgG1, V domains shown, human IgG1) VH: QVQLQESGPGLVKPSQTLSLTCTVSGGSISSGGYYWSWIRQHPGKGLEWIGNIYYSGSTVYNPSLKSRVTISVDTSKNQFSLKLSSVTAADTAVYYCARGLYGYGVLDVWGQGTMVTVSS VL: not shown
 |  |  |  |  |  |  |  |  | 433 | 37.3 |  | 0.851 | no binding | Ab78 (antibody, human IgG1, V domains shown, human IgG1) VH: QVQLVESGGGVVQPGRSLRLSCAASGFTFSSYGMHWVRQAPGKGLEWVAVIWYDGSNKYYADSVKGRFTISRDNSKNTLYLQMNSLRAEDTAVYYCARTPYPWIYFDLWGRGTLVTVSS VL: EIVLTQSPATLSLSPGERATLSCRASQSVSSYLAWYQQKPGQAPRLLIYDASNRATGIPARFSGSGSGTDFTLTISSLEPEDFAVYYCQQADNWPFTFGGGTKVEIK
 |  |  |  |  |  |  |  |  | 2100 | 109 | 3.26 | 6.68 |  | Ab68 (antibody, human IgG1, V domains shown, human IgG1) VH: QVQLVESGGGVVQPGRSLRLSCAASGFTFSSYGMHWVRQAPGKGLEWVALIWYDGSNKYYADSVKGRFTISRDNSKNTLYLQMNSLRAEDTAVYYCAKPGSMTDYWGQGTLVTVSS VL: EIVLTQSPATLSLSPGERATLSCRASQSVSSYLAWYQQKPGQAPRLLIYDASNRATGIPARFSGSGSGTDFTLTISSLEPEDFAVYYCQQRANYPITFGGGTKVEIK
 |  |  |  |  |  |  |  |  | 629 | 59.7 | 3.4 | 3.75 |  | Ab69 (antibody, human IgG1, V domains shown, human IgG1) VH: not shown VL: EIVLTQSPATLSLSPGERATLSCRASQSVSSYLAWYQQKPGQAPRLLIYDASNRATGIPARFSGSGSGTDFTLTISSLEPEDFAVYYCQQRADYPITFGGGTKVEIK
 |  |  |  |  |  |  |  |  | 799 | 60.4 |  | 1.16 | no binding | Ab84 (antibody, human IgG1, V domains shown, human IgG1) VH: QVQLVQSGAEVKKPGASVKVSCKASGYTFTSYGISWVRQAPGQGLEWMGWISTYNGNTNYAQKLQGRVTMTTDTSTSTAYMELRSLRSDDTAVYYCARGSGSGYDSWYDWGQGTLVTVSS VL: not shown
 |  |  |  |  |  |  |  |  | 804 | 64.7 |  | 2.77 | no binding | Ab71 (antibody, human IgG1, V domains shown, human IgG1) VH: QVQLVQSGAEVKKPGASVKVSCKASGYTFTSYYMHWVRQAPGQGLEWMGIINPSGGSTSYAQKFQGRVTMTRDTSTSTVYMELSSLRSEDTAVYYCARDISTHDYDLAFDIWGQGTMVTVSS VL: EIVMTQSPGTLSLSPGERATLSCRASQSVSSSYLAWYQQKPGQAPRLLIYGASNRATGIPDRFSGSGSGTDFTLTISRLEPEDFAVYYCQQAGSHPFTFGGGTKVEIK
0.654 |  | 0.229 | 141 | 78.8 | 652 | 65.5 | 4.3 | 16300 |  |  |  |  |  | Ab45 (antibody, human IgG1, V domains shown, human IgG1) VH: QVQLVQSGAEVKKPGASVKVSCKASGYTFTSYYMHWVRQAPGQGLEWMGIINPSGGSTSYAQKFQGRVTMTRDTSTSTVYMELSSLRSEDTAVYYCARGPGYTTALDYYYMDVWGKGTTVTVSS VL: EIVMTQSPATLSVSPGERATLSCRASQSVSSNLAWYQQKPGQAPRLLIYGASTRATGIPARFSGSGSGTEFTLTISSLQSEDFAVYYCQQLDDWFTFGGGTKVEIK
